We go through three compounds from paper PMC4688034 (Cell Reports, 2015).

In one experiment the target is 53BP1 BRCT2 domain (UniProt Q12888). Kind of experiment: fluorescence polarization titration. The note with it: reference: pS139 peptide, untreated; sites S139. In general terms: In fluorescence polarisation assays a small probe gives low polarisation when free and higher when bound to something large.
For experiment [1], the target named is fluorescein-…pSQEY (γH2AX phosphopeptide) (human). Kind of experiment: fluorescence polarisation.
A further experiment concerns γH2AX foci in HeLa cells. Put plainly: γH2AX focus formation after irradiation. The format is cell-based. The settings on record: 10 μM inhibitor, 1 hr prior to 3 Gy IR, fixed 30 min later.

For “H2AX (γH2AX when phosphorylated on Ser139) C-terminal 13 residues, 130-142 (from UniProt P16104) λ-phosphatase treated peptide”, in the experiment with 53BP1 BRCT2 domain, the KD result is reported as “lost; reference 1.4 ± 0.15”. In turn, “His6-SUMO-53BP1-BRCT2 (domain or fragment)” came in with a stoichiometry N with His6-SUMO-53BP1-BRCT2 of 2. This compound also registered a Kd in experiment [1] of 1400 nM.

Turning to `O=c1cc(-c2cccc3c2Sc2ccccc2S3)oc(N2CCOCC2)c1` [KU55933], the “γH2AX focus formation on irradiation” value in the experiment on γH2AX foci in HeLa cells was “substantially diminished”.

The term stoichiometry N denotes the number of molecules, sites or subunits per partner or assembly. As a reminder, the Kd is the free concentration of one partner at which half of the binding sites on the other are occupied at equilibrium, for simple one-to-one binding.
